Legend:
[1] = BTK FAC plasma stability assay, dog plasma; format: in vitro ADME; settings: for half-life at 5 µM: read-out: Plasma stability (h) dog (converted)
[2] = BTK FAC plasma stability assay, mouse plasma; format: in vitro ADME; settings: for Plasma stability (h) mouse / half-life at 5 µM: incubation to 24 h
Method: (§1) Plasma stability was conducted in Dulbecco's PBS buffer, mouse plasma, rat plasma or human plasma frozen with K3-EDTA from BiolVT). Thawed plasma was centrifuged prior to warming for 5 minutes at 37° C. Working solutions were prepared from 10 mM DMSO solution to 500 µM in acetonitrile:water (1:1); 2 µL of working solution was added to 198 µL blank plasma or PBS and mixed manually. 4×45 µL of spiked matrix was aliquoted into glass incubation plates (96-well DW glass microplate) and sealed with blue silicon/PTFE seal; then incubated on a Thermo shaker (38° C. 300 RPM). Samples were prepared at 0, 2, 6 and 24 h timepoints, by protein precipitation with chilled acetonitrile containing internal standard Glyburide (0.2 µM). Precipitated samples were shaken for 10 minutes and stored at 4° C. until completion of the study. Following precipitation of the terminal sample, samples were frozen at −80° C. for 1 hour. Samples were then thawed prior to centrifugation (20 minutes, 4500 RPM at 4° C.). 50 µL of supernatant of each sample was transferred to 384 well analysis plate containing 30 µL of water. Semi quantitative analysis (analyte: internal standard peak area ratio) was performed by LC-MS/MS using a Sciex QTrap 5500.

[3] = BTK FAC plasma stability assay, cyno plasma; format: in vitro ADME, cynomolgus monkey
[4] = BTK FAC plasma stability assay, PBS buffer arm; format: physicochemical; settings: for Plasma stability (h) PBS: incubation to 24 h
Method: as §1

[5] = BTK FAC plasma stability assay, rat plasma; format: in vitro ADME; settings: for Plasma stability (h) rat / half-life at 5 µM: incubation to 24 h
Method: as §1

Structure (SMILES) | Plasma stability (h) dog [1] [h] | % Release of degrader after 24 h dog [1] [%] | % Release of degrader after 24 h mouse [2] [%] | Plasma stability (h) mouse [2] [h] | Plasma stability (h) cyno [3] [h] | % Release of degrader after 24 h cyno [3] [%] | % Release of degrader after 24 h PBS [4] [%] | Plasma stability (h) PBS [4] [h] | % Release of degrader after 24 h rat [5] [%] | Plasma stability (h) rat [5] [h] | half-life at 5 µM [1] [h] | half-life at 5 µM [2] [h] | half-life at 5 µM [5] [h]
COc1ccc(C(=O)N2CCC3(CCN(CCc4ccc(-c5cc6c(-c7cc(F)cc(NC(=O)c8ccc(C(C)(C)OC(=O)CNC(=O)CCOCCOCCOCCOCCOCCOCCOCCOCCOCCOCCOCCOCCNC(C)=O)cc8F)c7C)ncnc6[nH]5)cc4)CC3)CC2)cc1N1CCC(=O)NC1=O [Example A33, 2-(4-((3-(6-(4-(2-(9-(3-(2,4-Dioxotetrahydropyrimidin-1(2H)-yl)-4-methoxybenzoyl)-3,9-diazaspiro[5.5]undecan-3-yl)ethyl)phenyl)-7H-pyrrolo[2,3-d]pyrimidin-4-yl)-5-fluoro-2-methylphenyl)carbamoyl)-3-fluorophenyl)propan-2-yl (2-oxo-6,9,12,15,18,21,24,27,30,33,36,39-dodecaoxa-3-azadotetracontan-42-oyl)glycinate] | 32 | 10.4 | 27.7 | 5.1 | 45.7 | 8.1 | 4.8 | >48 | 16.7 | 2.3 | – | – | –
COCCOCCOCCOCCOCCOCCOCCOCCOCCOCCOCCOCCC(=O)NCC(=O)OC(C)(C)c1ccc(C(=O)Nc2cc(F)cc(-c3ncnc4[nH]c(-c5ccc(CCN6CCC7(CC6)CCN(C(=O)c6ccc(OC)c(N8CCC(=O)NC8=O)c6)CC7)cc5)cc34)c2C)c(F)c1 [Example A34, 2-(4-((3-(6-(4-(2-(9-(3-(2,4-Dioxotetrahydropyrimidin-1(2H)-yl)-4-methoxybenzoyl)-3,9-diazaspiro[5.5]undecan-3-yl)ethyl)phenyl)-7H-pyrrolo[2,3-d]pyrimidin-4-yl)-5-fluoro-2-methylphenyl)carbamoyl)-3-fluorophenyl)propan-2-yl (2,5,8,11,14,17,20,23,26,29,32,35-dodecaoxaoctatriacontan-38-oyl)glycinate] | >48 | 5.3 | 26.2 | 6.8 | 30.6 | 13.9 | 5.2 | >48 | 42.2 | 5.3 | – | – | –
CCCCCCCCCCCN(C(=O)CCCCCCCCCC(=O)O)[C@@H](CCC(=O)NCC(=O)O[C@H]1CN(C(=O)Nc2cc(F)cc(-c3ncnc4[nH]c(-c5ccc(CCN6CCC7(CC6)CCN(C(=O)c6ccc(OC)c(N8CCC(=O)NC8=O)c6)CC7)cc5)cc34)c2C)C[C@@H]1CC(C)C)C(=O)O [Example A31, 11-(((S)-1-Carboxy-4-((2-(((3R,4S)-1-((3-(6-(4-(2-(9-(3-(2,4-dioxotetrahydropyrimidin-1(2H)-yl)-4-methoxybenzoyl)-3,9-diazaspiro[5.5]undecan-3-yl)ethyl)phenyl)-7H-pyrrolo[2,3-d]pyrimidin-4-yl)-5-fluoro-2-methylphenyl)carbamoyl)-4-isobutylpyrrolidin-3-yl)oxy)-2-oxoethyl)amino)-4-oxobutyl)(undecyl)amino)-11-oxoundecanoic acid] | – | – | – | – | – | – | – | >72 | – | – | 33.6 | < 1 | 1.2
CCCCCCCCCCCN(C(=O)CCCCCCCCCC(=O)O)C(CCC(=O)NCCOCCOCCOCCOCCOCCOCCOCCOCCOCCOCCOCCOCCC(=O)NCC(=O)NCn1c(-c2ccc(CCN3CCC4(CC3)CCN(C(=O)c3ccc(OC)c(N5CCC(=O)NC5=O)c3)CC4)cc2)cc2c(-c3cc(F)cc(NC(=O)c4ccc(C(C)(C)O)cc4F)c3C)ncnc21)C(=O)O (centres unmarked) [Example A38, 49-Carboxy-1-(6-(4-(2-(9-(3-(2,4-dioxotetrahydropyrimidin-1(2H)-yl)-4-methoxybenzoyl)-3,9-diazaspiro[5.5]undecan-3-yl)ethyl)phenyl)-4-(5-fluoro-3-(2-fluoro-4-(2-hydroxypropan-2-yl)benzamido)-2-methylphenyl)-7H-pyrrolo[2,3-d]pyrimidin-7-yl)-3,6,46,51-tetraoxo-50-undecyl-9,12,15,18,21,24,27,30,33,36,39,42-dodecaoxa-2,5,45,50-tetraazahenhexacontan-61-oic acid] | >48 | 0.1 | 0.1 | >48 | – | – | 0.2 | >48 | 0.1 | >48 | – | – | –
CCCCCCCCCCCN(C(=O)CCCCCCCCCC(=O)O)C(CCC(=O)NCCOCCOCCOCCOCCOCCOCCOCCOCCOCCOCCOCCOCCOCCOCCOCCOCCOCCOCCOCCOCCOCCOCCOCCOCCC(=O)NCC(=O)OC(C)(C)c1ccc(C(=O)Nc2cc(F)cc(-c3ncnc4[nH]c(-c5ccc(CCN6CCC7(CC6)CCN(C(=O)c6ccc(OC)c(N8CCC(=O)NC8=O)c6)CC7)cc5)cc34)c2C)c(F)c1)C(=O)O (centres unmarked) [Example A32, 86-Carboxy-2-(4-((3-(6-(4-(2-(9-(3-(2,4-dioxotetrahydropyrimidin-1(2H)-yl)-4-methoxybenzoyl)-3,9-diazaspiro[5.5]undecan-3-yl)ethyl)phenyl)-7H-pyrrolo[2,3-d]pyrimidin-4-yl)-5-fluoro-2-methylphenyl)carbamoyl)-3-fluorophenyl)-2-methyl-4,7,83,88-tetraoxo-87-undecyl-3,10,13,16,19,22,25,28,31,34,37,40,43,46,49,52,55,58,61,64,67,70,73,76,79-pentacosaoxa-6,82,87-triazaoctanonacontan-98-oic acid] | 37.3 | 4.7 | 5.8 | 27 | – | – | 1 | >48 | 6.1 | 20.8 | – | – | –
CCCCCCCCCCCN(C(=O)CCCCCCCCCC(=O)O)[C@H](CCC(=O)NCCOCCOCCOCCOCCOCCOCCOCCOCCOCCOCCOCCOCCC(=O)NCC(=O)OC(C)(C)c1ccc(C(=O)Nc2cc(F)cc(-c3ncnc4[nH]c(-c5ccc(CCN6CCC7(CC6)CCN(C(=O)c6ccc(OC)c(N8CCC(=O)NC8=O)c6)CC7)cc5)cc34)c2C)c(F)c1)C(=O)O [Example A3, (R)-50-Carboxy-2-(4-((3-(6-(4-(2-(9-(3-(2,4-dioxotetrahydropyrimidin-1(2H)-yl)-4-methoxybenzoyl)-3,9-diazaspiro[5.5]undecan-3-yl)ethyl)phenyl)-7H-pyrrolo[2,3-d]pyrimidin-4-yl)-5-fluoro-2-methylphenyl)carbamoyl)-3-fluorophenyl)-2-methyl-4,7,47,52-tetraoxo-51-undecyl-3,10,13,16,19,22,25,28,31,34,37,40,43-tridecaoxa-6,46,51-triazadohexacontan-62-oic acid] | 44.4 | 9.7 | 5.2 | >48 | – | – | 1.9 | >48 | 9 | >48 | – | – | –
CCCCCCCCCCCN(C(=O)CCCCCCCCCC(=O)O)[C@@H](CCC(=O)N(CCNC(=O)CCOCCOCCOCCOCCOCCOCCOCCOCCOCCOCCOCCOC)CC(=O)OC(C)(C)c1ccc(C(=O)Nc2cc(F)cc(-c3ncnc4[nH]c(-c5ccc(CCN6CCC7(CC6)CCN(C(=O)c6ccc(OC)c(N8CCC(=O)NC8=O)c6)CC7)cc5)cc34)c2C)c(F)c1)C(=O)O [Example A37, (S)-46-Carboxy-42-(2-((2-(4-((3-(6-(4-(2-(9-(3-(2,4-dioxotetrahydropyrimidin-1(2H)-yl)-4-methoxybenzoyl)-3,9-diazaspiro[5.5]undecan-3-yl)ethyl)phenyl)-7H-pyrrolo[2,3-d]pyrimidin-4-yl)-5-fluoro-2-methylphenyl)carbamoyl)-3-fluorophenyl)propan-2-yl)oxy)-2-oxoethyl)-38,43,48-trioxo-47-undecyl-2,5,8,11,14,17,20,23,26,29,32,35-dodecaoxa-39,42,47-triazaoctapentacontan-58-oic acid] | – | 2.2 | 2.1 | – | – | – | 1.7 | >48 | 1.5 | – | 44.7 | > 48 | > 48
